From patent US20230357364A1 come the findings set out here.

This test concerns the target SARS-CoV-1 RBD (RBD-1) (SARS-CoV-1). The test can be described thus: ELISA. Particulars: remark: other sources report otherwise. In general terms: ELISA stands for enzyme-linked immunosorbent assay.

B1: L12.bP11A06 (antibody, V domains shown)
VH: EVQLVESGGGLIQPGGSLRLSCAASGLTVSSNYMSWVRQAPGKGLEWVSVIYSGGSTFYADSVKGRFTISRDNSKNTLYLQMNSLRAEDTAVYYCARDLDVYGLDVWGQGTTVTVSS
VL: DIVMTQSPSFLSASVGDRVTITCRASQGISSYLAWYQQKPGKAPKLLIYAASTLQSGVPSRFSGSGSGTEFTLTISSLQPEDFATYYCQQLNSYPPKFTFGPGTKVEIK
One may read the EC50 as the concentration that produces a half-maximal response. A high value points to weaker potency. Consider B1, for which the EC50 is more than 50 µg/mL.
